{"source": "patent US10683486B2", "about": "“Methods for producing hepatocytes” (BioLamina AB, priority 2015, dated 2020)", "key": {"[1]": {"test_system": "stem cell derived hepatocytes", "assay": "CYP3A and CYP1A2 activity using pGlo technology", "type": "cell-based, human", "conditions": "days 16-26", "procedure": "Given that cell organisation and cell division are important factors in hepatocyte function, hepatocyte metabolic capacity in vitro was studied. Stem cell derived hepatocytes were first examined for cytochrome P450 expression using well characterised antisera. CYP3A and CYP1A2 activity were measured from days 16-26 using pGlo technology. CYP activity was expressed as relative light units (RLU) per milliliter of media per milligram of protein. Levels of significance were measured by student t-test.\nAll of the cells expressed high levels of each marker on each substrate."}, "[2]": {"test_system": "stem-cell derived hepatocytes", "assay": "Phase contrast morphology and MRP1/HNF4a co-immunostaining (functional organization)", "type": "cell-based, human", "conditions": "day 24", "source_text": "FIG. 8 is a set of nine photomicrographs from day 24 of differentiation.\nThe phase contrast images also indicated hepatocytes were arranged in lobule-like structures within the culture dish, reminiscent of regenerating liver.\nAround these lobule structures, positive staining for MRP-1, an important basal membrane marker, was detected."}, "[3]": {"test_system": "primary human hepatocytes (PHHs)", "assay": "Primary human hepatocyte metabolism and protein production on the substrates", "type": "cell-based", "conditions": "female PHHs, ELISA", "procedure": "Cryoplateable human hepatocytes were plated and maintained according to the instructions of vendor Life Technologies. Briefly, cryoplateable hepatocytes were resuscitated in thawing medium (Life Technologies, catalog no. CM3000) and plated onto the pre-coated 96 well plates. Cells-attached to all matrices efficiently and were maintained in an incubator set at 37 degrees Celsius and CO2 levels set to 5%. At 24 hours post-plating, the medium was changed to an incubation medium (catalog no. CM4000).\nTo determine whether these large changes in metabolic capacity correlated to increased protein production, the production of albumin and alpha fetoprotein (AFP) from hESC-derived and cryoplatable hepatocytes was quantified using commercially available enzyme-linked immunosorbent assay (ELISA) kits. The different media were collected at denoted time points during hESC differentiation, days 20-26. […] Samples were run in triplicate and measured on a FLUOStar Omega multi-mode microplate reader. Protein production was expressed as ng or μg of protein per milliliter of media, per milligram of protein. The results are shown in FIG. 7, where the expression of these two proteins was measured on days 20, 22, 24, and 26 of differentiation. Despite the large changes in metabolic capacity, no significant differences in albumin or AFP secretion was detected by ELISA. […]"}, "[4]": {"test_system": "MAN12 derived hepatocytes", "assay": "Protein secretion (ELISA) and CYP p450 activity of MAN12 derived hepatocytes", "type": "cell-based, human", "conditions": "CYP1A2 and CYP3A activity, days 18, 20 and 24", "procedure": "MAN12 cells, a GMP grade cell line, were plated on three different substrates. The first substrate was Matrigel® (MG), and served as a control. The second substrate was coated with 5 micrograms per square centimeter (μg/cm^2) of laminin-521 (LN-521). […] The cells were then differentiated according to the Cameron protocol.\nFIG. 15 is a set of four bar graphs. The first row of two graphs show hepatocyte protein secretion for alpha fetoprotein and albumin as analyzed by ELISA on day 24 of differentiation (n=3). No significant differences were observed across the three matrices. The second row of two graphs show the metabolic function of CYP p450 activity on days 18, 20, and 24 for CYP1A2 and CYP3A activity.\nLooking at both Example 4 and Example 5, the MAN11 and MAN12 cells differentiated efficiently on all three substrates, with the majority of cells (>80%) expressing albumin and CYP3A, as detected by immunostaining."}}}
{"substance": "LN-521: substrate coated with 5 μg/cm^2 of laminin-521, the protein formed by joining α5, β2 and γ1 chains", "values": [{"measurement": "CYP1A2 activity compared with MG control", "setting": "[1]", "value": "significantly greater than it was on the control"}, {"measurement": "MRP-1 staining, hepatocyte organisation", "setting": "[2]", "value": "exhibited networks of organised hepatocytes in vitro"}, {"measurement": "albumin production", "setting": "[3]", "value": "enhanced"}, {"measurement": "metabolic activity of MAN12 derived hepatocytes", "setting": "[4]", "value": "improved metabolic activity"}]}
